B1: OR4K15 (parent)
chain: GUUAACGGUCAUAGGCCAUGGAAACUAGGAGCACCAUUUCGCUGCCAGUGAAGAAAUGAACAAAGAAAAUCUGGGCCAGGCAGGCAUCAAAAGAAAUAGUCUUGCGCUCAACCAGAAAGUCUGUAAUCAUUUUAAGGGUA

This note sets out measurements from the RNAGym collection of RNA variant scans (doi:10.7554/elife.90254).

The variants in the data set derive from B1. Put plainly: self-cleavage, relative activity (ratio to wild type); higher = more cleavage; in vitro, sequencing; the parent is a self-cleaving ribozyme.
With A23U A67U, the self-cleavage is 1.91.
With A22G G48U, the self-cleavage was 0.9.
Next, A22G G75C: 0.37.
Next, A22G C40U: 1.85; A22G U37C: 1.68.
The figure for A22G U49A is 0.65; for A22G A129C it is 1.08.
Regarding A22G G138U, the self-cleavage stood at 0.66.
The figure for A23U A63G is 0.92.
For the variant A24C A125G, the self-cleavage was 0.43.
Next, A23G A78U: 0.36; A23G A78G: 0.29.
Next, A23G U102A: 0.82.
On to A23C A114U, for which the self-cleavage stood at 0.01.
Next, A22U U127C: 1.13; A22U U57G: 1.17; A24C A94G: 1.63.
The figure for A24G A63G is 1.17; for A22G C42A it is 0.91.
Regarding A22G C42U, the self-cleavage was determined as 1.45.
Next, A23G A54U: 1.5; A22G U120C: 0.98.
The figure for A24G A30C is 1.22.
In the case of A24G A30G, the self-cleavage is 1.01.
The figure for A23C U132C is 1.51; for A23G G80A it is 0.31; for A23G U37A it is 1.24.
The figure for A24C A59G is 1.51; for A23U A24G it is 1.15; for A22G U132A it is 1.93.
For the variant A22G U132C, the self-cleavage worked out at 1.28.
The figure for A23G A66G is 1.02; for A23G A66U it is 1.43; for A23G A68G it is 1.29.
Next, A23G G41A: 1.29; A24G A116G: 0.61.
The figure for A23C U70A is 1.48.
In the case of A24C U43C, the self-cleavage was determined as 1.9.
The figure for A24C U43A is 0.67; for A22U U132C it is 1.99; for A23U U70C it is 0.83.
Next, A23G A140U: 1.15.
Turning to A23G A140G, the self-cleavage amounted to 1.61.
Next, A23G A140C: 1.55.
The figure for A24G A92U is 1.45; for A22G U72C it is 0.33.
The figure for A22G U72A is 0.49; for A22U C105U it is 0.18.
On to A22G U97A, for which the self-cleavage turned out to be 0.96.
As for A22G U97C, the self-cleavage was 1.52.
The figure for A23G A92C is 1.29; for A23G U108C it is 0.03; for A23G U108G it is 0.
The figure for A23G A89U is 0.72; for A23G A89C it is 1.98; for A22U U39A it is 2.33.
Turning to A24G C85U, the self-cleavage amounted to 0.95.
Next, A24G C85G: 0.97; A24G G75A: 0.15; A23U G123A: 1.5.
Take A23U A66U: the self-cleavage amounted to 1.42.
The figure for A24G G58A is 0.4; for A23G U133C it is 1.35.
Next, A22G C112A: 0.05.
Next, A23G G83A: 1.24.
On to A22G C25A, for which the self-cleavage came out at 0.35.
Next, A22G C25G: 1.24.
The figure for A22U G83A is 0.93; for A24C A92G it is 1.9.
Next, A22U A92U: 2.17; A22U A92G: 1.41; A24C A54G: 1.21.
As to A24G A111U, the self-cleavage came out at 0.19.
Next, A24G A111C: 0.02; A23C A59G: 0.63.
Next, A23C A59U: 1.77; A24G A89G: 0.78; A24G A89U: 1.41.
On to A22U A33G, for which the self-cleavage came to 0.56.
The figure for A24C U131C is 1.82; for A22U C76A it is 0.16; for A24G A90G it is 1.03.
Next, A23G A96G: 0.92.
Consider A23G U38C, for which the self-cleavage was 1.38.
Next, A22U U139A: 1.63; A22G U124C: 0.38.
The figure for A22G U124A is 1.29.
As to A24C A68G, the self-cleavage turned out to be 1.52.
The figure for A22U G99A is 1.39.
The figure for A22U A64G is 1.62; for A23U C32U it is 2.28.
Next, A23G G75C: 0.16.
For A23G A91U, the self-cleavage was 1.57.
The figure for A22G U70A is 1.28.
Consider A22G U130C, for which the self-cleavage turned out to be 0.3.
Next, A24G A86G: 1.19; A24G A91U: 1.61.
The figure for A24C U139C is 2.1; for A23G U39A it is 0.98; for A23U A117U it is 0.6.
Next, A22G C113U: 0.14.
With A23U G79A, the self-cleavage is 0.16.
Next, A23C: 0.9; A23G: 0.97.
The figure for A23U is 1.19; for A22G A126C it is 0.67; for A22G C35A it is 1.2.
Next, A24G A110U: 0.99; A24C U26C: 1.52.
With A22U A69G, the self-cleavage was 1.
Next, A23G U132C: 1.07.
The figure for A23G U132A is 0.86; for A23U A56G it is 1.29; for A23G G137A it is 1.04.
Take A23G A27G: the self-cleavage worked out at 0.89.
Next, A24G A96U: 0.93.
The figure for A24C A52G is 1.55; for A22U A23U it is 1.59; for A22U A54U it is 1.56.
A24G A82U: the self-cleavage is 0.31.
A23G U100C: the self-cleavage was 1.72.
For A23G U100A, the self-cleavage amounted to 0.74.
Take A23U U43A: the self-cleavage is 1.44.
Regarding A23U A92G, the self-cleavage is 1.46.
The figure for A23G C77U is 2.07; for A24G A134U it is 0.93; for A22U C121U it is 0.
Next, A22G A135G: 1.54; A22G A135U: 1.86; A24C U102C: 1.22.
Next, A23G A94U: 1.54; A23G A56G: 1.18; A24G A66U: 1.11.
A24G A66G: the self-cleavage turned out to be 0.73.
The figure for A23G U57A is 0.53.
Turning to A23G U57C, the self-cleavage was found to be 1.04.
Next, A22U U49C: 0.77; A24G G93A: 0.88.
Next, A22U A114G: 1.09.
Next, A23C A51U: 1.46; A24G G79A: 0.18; A22U U102C: 2.02.
For the variant A22U G29A, the self-cleavage came out at 0.84.
The figure for A24G A64U is 1.51; for A22U U103C it is 1.66; for A23G G44U it is 1.21.
The figure for A22U U130C is 0.32; for A23G U122A it is 1.72; for A24G A67G it is 1.32.
The figure for A22G U131C is 0.51; for A22U A51U it is 1.14.
As for A23U A82G, the self-cleavage turned out to be 0.82.
The figure for A22U A47G is 1.13.
The figure for A24G A98U is 1.74; for A24G A98G it is 0.51.
In the case of A24C G104A, the self-cleavage came to 0.01.
The figure for A24C U49C is 1.53.
Next, A23G G104A: 0.03; A23G A86C: 1.06.
For A24C U108C, the self-cleavage was found to be 0.01.
Next, A24C U108A: 0.01; A22G C88U: 2.1; A24G A126U: 0.98.
Next, A22U A62G: 1.98.
The figure for A24G A114U is 0.19.
Regarding A22U G74A, the self-cleavage was 0.1.
Consider A22U G74U, for which the self-cleavage was determined as 0.27.
